In patent US20100322946A1:

What was measured:
[1] = target: human VEGF (form not stated) (human) (UniProt P15692); assay: biotin-hVEGF with IgG, free VEGF captured on Avastin
[2] = target: human VEGF165 (human) (UniProt P15692); assay: competition ELISA, hVEGF165 in solution varied
Sequence of human VEGF165 (human) (P15692 other isoform, or with tags, fused parts or gaps): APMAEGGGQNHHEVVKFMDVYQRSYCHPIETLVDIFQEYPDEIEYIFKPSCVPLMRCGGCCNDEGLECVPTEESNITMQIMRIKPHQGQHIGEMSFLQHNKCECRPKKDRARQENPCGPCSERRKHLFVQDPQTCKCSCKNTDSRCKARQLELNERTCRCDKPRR

G6 hIgG (antibody)
IC50 (read off the curve) [1]: 3 nM | IC50 (read off the curve) [2]: 3 nM
